Test results from patent publication US20200209227A1.

How the values were obtained:
Calmodulin [1] = experiment: BSI, free-solution binding signal; row repeated for a second PDB structure used in the model
Calmodulin [2] = experiment: BSI, calmodulin-calcineurin assay, free solution
Calmodulin [3] = experiment: BSI, free-solution binding signal
Calmodulin [4] = experiment: BSI; molar refractometry from the experimental phase shift at Bmax
Calmodulin [5] = experiment: BSI; molar refractometry; row repeated for a second PDB structure used in the model

Q: For Calcineurin (enzyme), which BSI ΔRIU (Calmodulin [1]) is on record?
A: The BSI ΔRIU was 0.00049 RIU.

Q: What about the FreeSRF (binding) signal ΔRIU (Calmodulin [2]) of the same substance?
A: Its FreeSRF (binding) signal ΔRIU is 0.000441 RIU.

Q: And the BSI ΔRIU (Calmodulin [3])?
A: Its BSI ΔRIU is 0.00049 RIU.

Q: And the Experimental Chi (RIU/M) (Calmodulin [4])?
A: The Experimental Chi (RIU/M) was 46100 RIU/M.

Q: And the Experimental Chi (RIU/M) (Calmodulin [5])?
A: Its Experimental Chi (RIU/M) is 46100 RIU/M.
